Measured values taken from the supplement of paper PMC7125110.
± gives the standard error. Variants at the floor of the assay were thinned out.

B1: glmS ribozyme (parent)
chain: AUAAAAGCGCCAGAACUACAGAAAUGUAGUUGACGAGGAGGAGGUUUAUCGAAUUUUCGGCGGAUGCCUCCAAA

What was measured:
Conditions in all cases: with glucosamine-6-phosphate
[1] = variants of: B1; test: self-cleavage kobs at 640 uM GlcN6P; higher = faster cleavage; RNA array
In short: (§1)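 Barcoded ribozyme variants were transcribed in situ on sequenced MiSeq chips by E. coli RNA polymerase. At 37 °C, a hybridised Cy3 probe tracked them while glucosamine-6-phosphate (40 μM to 10 mM) in HEPES/KCl/Mg(OAc)2 buffer flowed in and tiles were imaged over ~14 h. Per-tile medians of signals normalised to baseline and to non-cleaving reference variants were fit to one- or two-exponential decays, giving kobs. kcat and KM came from weighted Michaelis–Menten fits across concentrations.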

[2] = variants of: B1; test: self-cleavage kobs at 2500 uM GlcN6P; higher = faster cleavage; RNA array
In short: as §1

[3] = variants of: B1; test: self-cleavage kobs at 10000 uM GlcN6P; higher = faster cleavage; RNA array
In short: as §1

Variant	self-cleavage kobs at 640 uM GlcN6P [1] [s⁻¹]	self-cleavage kobs at 2500 uM GlcN6P [2] [s⁻¹]	self-cleavage kobs at 10000 uM GlcN6P [3] [s⁻¹]
C8A A14G G29A A36U	< 1e-05	< 1e-05	
C8U G9A A15U A39G	< 1e-05	< 1e-05	
C8G G35A G44C	< 1e-05		< 1e-05
G9C G40C U49G	< 1e-05		< 1e-05
G7U A14G G60C C70A	< 1e-05		
G9U G29U G44A	< 1e-05	< 1e-05	
G9A G38A A42G U69G C70U C71A	< 1e-05		
C8A U31C G32A	< 1e-05		
G7C C10U G43U	< 1e-05		
C8G G9C A39C	< 1e-05	< 1e-05	
C8A U31A G38C G40U C50G G60C C71A	< 1e-05		
A6U C50G U55A C71U	0.00151 ± 0.00047		
G7C C8A A42U	< 1e-05		
A6G A15C G32U	< 1e-05		
G9U C34U A39G	< 1e-05		
G7C A64C	< 1e-05		
A6G G51A G59U G60A	< 1e-05	< 1e-05	
C10A A42G U47C C50G C70U	< 1e-05		
G7U A33U G37U G63A	< 1e-05	< 1e-05	
A6G G51C A53U C67U	< 1e-05		
G9U C34A G59U G63A	< 1e-05	< 1e-05	
C10G C16A A53U G66U U69A	5.56e-05 ± 2.7e-05	4.65e-05 ± 2e-05	
G7C A15U G43A A48G C67A	< 1e-05	< 1e-05	

Variant	self-cleavage kobs at 640 uM GlcN6P [1] [s⁻¹]	self-cleavage kobs at 2500 uM GlcN6P [2] [s⁻¹]	self-cleavage kobs at 10000 uM GlcN6P [3] [s⁻¹]
G9A G37C U54G G60U C68U	< 1e-05	< 1e-05	
G9C A39U G40U	< 1e-05	< 1e-05	
A6U G9A C50U	< 1e-05		
C8A U31A C34U G60C	< 1e-05		
C8G C10A G41A	< 1e-05	< 1e-05	
G9A G13C U57C	< 1e-05	< 1e-05	
G9U G41A A42U	< 1e-05	< 1e-05	
C8G C58U	< 1e-05	< 1e-05	< 1e-05
G7A A14G G29U C70G	< 1e-05	< 1e-05	
C8G A14U A42G	< 1e-05		
G7U G38A G44U	< 1e-05		
A6G G32C G51C	< 1e-05		
C10G C11G G32C G59C C67G	< 1e-05		
C8U G35C C68U	< 1e-05		
G7C A36C U56A	< 1e-05		
C8U C11A	< 1e-05		< 1e-05
G7A A15U A53G	< 1e-05		
C8A G35A G59A C70U	< 1e-05	< 1e-05	
G7A A48G A64U C70U	< 1e-05		
G9A C10A U30C	< 1e-05	< 1e-05	
G9U C10G C11A	< 1e-05		
G7A G43A U55A G60U C67U C70G	< 1e-05		
A6G U30A G41A C68U	< 1e-05		

Variant	self-cleavage kobs at 640 uM GlcN6P [1] [s⁻¹]	self-cleavage kobs at 2500 uM GlcN6P [2] [s⁻¹]	self-cleavage kobs at 10000 uM GlcN6P [3] [s⁻¹]
G7C C10A G13A A33C	< 1e-05	< 1e-05	< 1e-05
A6U A33G U69G	9.46e-05 ± 3.6e-05	0.000191 ± 6.5e-05	
C10G A15C A36U	< 1e-05		
G9A C50U	< 1e-05	< 1e-05	< 1e-05
G9C C50U U55G	< 1e-05	< 1e-05	
A6U U49C U54A A64U C68U	< 1e-05		
G9A G35A A48C C50G	< 1e-05	< 1e-05	
A6G G29C G35U A42C C58G C68G	< 1e-05		
C8A A15G G44A C61U C71A	< 1e-05	< 1e-05	
G9U A36G A39U	< 1e-05	< 1e-05	
G9A C10U C68A	< 1e-05		
A6U A36C A39U C71G	< 1e-05	< 1e-05	
C8A C34U A36U G59U G62A	< 1e-05		
G9C A48G C67G C68A	9.72e-05 ± 4.1e-05		0.000631 ± 0.00016
G9C A12C C19A G51U U54G G63C C70G	< 1e-05	< 1e-05	
C8U G43A C58G	< 1e-05	< 1e-05	
G9U A12C	< 1e-05		< 1e-05
C8A C10A A42G G60U	< 1e-05	< 1e-05	
A6U C50A G60A C70A	0.000136 ± 5e-05		
C10A A14C A64U	< 1e-05	< 1e-05	
C10G C11U G41A C70U	< 1e-05		
C8A U69A	0.00169 ± 0.00074		
G9A A42G A52G	< 1e-05		

Variant	self-cleavage kobs at 640 uM GlcN6P [1] [s⁻¹]	self-cleavage kobs at 2500 uM GlcN6P [2] [s⁻¹]	self-cleavage kobs at 10000 uM GlcN6P [3] [s⁻¹]
C10A U46C U47A G59A	< 1e-05	< 1e-05	
G7U C10U A52U	< 1e-05		
C8U A15U U46G G51A G66A	< 1e-05		
A6U G51C U56A U69G C70A	0.000269 ± 8e-05		
A6G G9C G60C G63A C68U	< 1e-05		
C8U G13A G35A G38A G63A C68U	0.001 ± 0.00031		
G9C G40A G66U C68G	< 1e-05		
G9U U54G C68U	< 1e-05		
C8U C34U A42U U65A C67G	0.000104 ± 4.1e-05	5.58e-05 ± 2.1e-05	
G7U A14C G37C	< 1e-05	< 1e-05	
G9C U31G U57A	< 1e-05		
G7C U45G A53U A64G	< 1e-05		
G7C A15C G51U C61A G66U	< 1e-05		
C8G A15G C16U U45G U49A	< 1e-05	< 1e-05	
G7A G40U U45G C58G	< 1e-05	< 1e-05	
G7C G40U	< 1e-05	< 1e-05	< 1e-05
G7U G35U A42G	< 1e-05	< 1e-05	
C8A A53G G63U	< 1e-05		
G7A C10U C67G	8.24e-05 ± 3.5e-05		
G9A C68A U69C	< 1e-05		
C8A A12C A33U A64G	< 1e-05	< 1e-05	
C8G C10U A14G C34A U69G	0.000745 ± 0.00024	< 1e-05	
G7U G66A C67U	< 1e-05	< 1e-05	

Variant	self-cleavage kobs at 640 uM GlcN6P [1] [s⁻¹]	self-cleavage kobs at 2500 uM GlcN6P [2] [s⁻¹]	self-cleavage kobs at 10000 uM GlcN6P [3] [s⁻¹]
G7A A15U A33G A36U G38U U57C	< 1e-05	< 1e-05	
C8G G32A A39G U54A	< 1e-05	< 1e-05	
C10A C67U C68U	0.000489 ± 0.00014		
G9A G44U A52G U65G	< 1e-05	< 1e-05	
G7C A12G A36C	< 1e-05		
G7U U30A G51A	< 1e-05		
C8G G32U G38U G44A	< 1e-05		
G7C A14C G44A G63A	< 1e-05	< 1e-05	
G7U C10U G43U	< 1e-05		
G9C C50G G60C C70A	0.000151 ± 4.9e-05	0.000123 ± 3.7e-05	
A6G U46C U47A	< 1e-05		
G9A U57A	< 1e-05	< 1e-05	
G7A G44C C50U	< 1e-05	< 1e-05	
C8U G9C C50A G51U G60U	< 1e-05		
G9C A14G G37U G62C C71A	< 1e-05	< 1e-05	
C10G A14U	< 1e-05		< 1e-05
A6G G7A C10U G44C G60C	< 1e-05	< 1e-05	
C8G A12U A36C	< 1e-05		
C8G G32A U46C A53U G63C	< 1e-05	< 1e-05	
G7C G59C G66C	< 1e-05		< 1e-05
C10A G38A G40U C50G G51U	< 1e-05	< 1e-05	
G7C C71A	< 1e-05		< 1e-05
G7U U31C C50G	0.000324 ± 0.00016		

Variant	self-cleavage kobs at 640 uM GlcN6P [1] [s⁻¹]	self-cleavage kobs at 2500 uM GlcN6P [2] [s⁻¹]	self-cleavage kobs at 10000 uM GlcN6P [3] [s⁻¹]
A6U C10A A14U C70U	0.000391 ± 8.2e-05	5.43e-05 ± 2.3e-05	
C8G G32U	< 1e-05	< 1e-05	
G7C A15C A39U A42C U57A	< 1e-05	< 1e-05	
C8A G9A G13U	< 1e-05		
C8G G29C A42G G51C C58G G59A	< 1e-05		
A6G G41A G43C C50G C61U	< 1e-05	< 1e-05	
A6U A14C G51C	< 1e-05	< 1e-05	
C8G G13C G59A U69G	< 1e-05		
G9U U47G	< 1e-05		< 1e-05
C8U U56G G63A	< 1e-05		
G9U C10U G38U G44C U49C	< 1e-05		
G9C C67G C68U	< 1e-05	< 1e-05	
C8U C16A G35C A36U C71G	< 1e-05	< 1e-05	
G7A U56G U69A	0.00091 ± 0.00042		
A6G C11G C34U U45G	< 1e-05		
C8G G43A U46G	< 1e-05		< 1e-05
C8U C19A G35A A36U G51U	< 1e-05		
G7U C8G G38C	< 1e-05		
G9C A33G G35A G63U	< 1e-05		
C8U C16U C71A	< 1e-05		
C8A A48G A53U	< 1e-05	< 1e-05	
